{
  "source": "paper PMC4958246",
  "target": "polymerized rabbit skeletal muscle actin (F-actin) (rabbit) (UniProt P68135)",
  "experiment": "co-sedimentation; proteins incubated with polymerized rabbit skeletal actin (40 µl of a 1-mg/ml stock; 50 mM KCl, 2 mM MgCl2, 1 mM ATP); WD0830 at 40 ng/ml final; centrifuged at 14,000 x g 1 h 24°C, then 150,000 x g 1.5 h 24°C; supernatants and pellets on silver-stained SDS-PAGE, densitometry with ImageJ",
  "data": [
    {"substance": "Wolbachia pipientis wMel protein WD0830 (Wolbachia actin-localizing effector 1) (natural protein)", "values": [
      {"measurement": "percent of the protein in the pellet with actin", "value": 24, "unit": "%"}
    ]}
  ]
}
